# From the RNAGym collection of RNA variant scans (doi:10.1093/molbev/msab373)
# B1: Azoarcus group I ribozyme (parent)
# chain: GUGCCUUGCGCCGGGAAACCACGCAAGGGAUGGUGUCAAAUUCGGCGAAACCUAAGCGCCCGCCCGGGCGUAUGGCAACGCCGAGCCAAGCUUCGGCGCCUGCGCCGAUGAAGGUGUAGAGACUAGACGGCACCCACCUAAGGCAAACGCUAUGGUGAAGGCAUAGUCCAGGGAGUGGCGAAAGUCACACAAACCGG
# Variants of: B1
# Experiment: reverse-splicing fitness (ratio to wild type); higher = more active; in vitro selection; Mg2+ level not given
# Summary of the method: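 An in vitro group I ribozyme library with randomized positions was T7-transcribed and gel-purified. In triplicate, 10 pmol RNA in EPPS pH 7.5 was reacted with 50 pmoles of a 30-nt RNA substrate for 1 h at 37 °C across several added MgCl2 levels (1–48 mM), then stopped with EDTA. Products were reverse transcribed from a substrate-complementary primer, PCR-amplified and sequenced (HiSeq 4000). Fitness is a variant's read proportion after selection over that before, normalised to wild type.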
row,Variant,reverse-splicing fitness
1,C82G A111U A120C A145C C150U C169A U176C,0.0115
2,C82G A111U A120C A145C C150U C169A U176G,0.00651
3,C82G A111U A120C A145C C150U C169G,0.00854
4,C82G A111U A120C A145C C150U C169G U176A,0.0279
5,C82G A111U A120C A145C C150U C169G U176C,0.0221
6,C82G A111U A120C A145C C150U C169G U176G,0.00776
7,C82G A111U A120C A145C C150U C169U,0.0113
8,C82G A111U A120C A145C C150U C169U U176A,0.0127
9,C82G A111U A120C A145C C150U C169U U176C,0.0118
10,C82G A111U A120C A145C C150U C169U U176G,0.00678
11,C82G A111U A120C A145C C150U U176A,0.0111
12,C82G A111U A120C A145C C150U U176C,0.0178
13,C82G A111U A120C A145C C150U U176G,0.00601
14,C82G A111U A120C A145C C169A,0.00886
15,C82G A111U A120C A145C C169A U176A,0.0193
16,C82G A111U A120C A145C C169A U176C,0.00941
17,C82G A111U A120C A145C C169A U176G,0.00544
18,C82G A111U A120C A145C C169G,0.00986
19,C82G A111U A120C A145C C169G U176A,0.0301
20,C82G A111U A120C A145C C169G U176C,0.0236
21,C82G A111U A120C A145C C169G U176G,0.00667

row,Variant,reverse-splicing fitness
1,C82G A111U A120C A145C C169U,0.0119
2,C82G A111U A120C A145C C169U U176A,0.0148
3,C82G A111U A120C A145C C169U U176C,0.0128
4,C82G A111U A120C A145C C169U U176G,0.00455
5,C82G A111U A120C A145C U176A,0.0155
6,C82G A111U A120C A145C U176C,0.0234
7,C82G A111U A120C A145C U176G,0.00674
8,C82G A111U A120C A145G,0.0543
9,C82G A111U A120C A145G C150A,0.0162
10,C82G A111U A120C A145G C150A C169A,0.0113
11,C82G A111U A120C A145G C150A C169A U176A,0.02
12,C82G A111U A120C A145G C150A C169A U176C,0.026
13,C82G A111U A120C A145G C150A C169A U176G,0.00968
14,C82G A111U A120C A145G C150A C169G,0.00949
15,C82G A111U A120C A145G C150A C169G U176A,0.0181
16,C82G A111U A120C A145G C150A C169G U176C,0.0297
17,C82G A111U A120C A145G C150A C169G U176G,0.00823
18,C82G A111U A120C A145G C150A C169U,0.0121
19,C82G A111U A120C A145G C150A C169U U176A,0.0148
20,C82G A111U A120C A145G C150A C169U U176C,0.0159
21,C82G A111U A120C A145G C150A C169U U176G,0.00802

row,Variant,reverse-splicing fitness
1,C82G A111U A120C A145G C150A U176A,0.011
2,C82G A111U A120C A145G C150A U176C,0.0228
3,C82G A111U A120C A145G C150A U176G,0.0103
4,C82G A111U A120C A145G C150G,0.0114
5,C82G A111U A120C A145G C150G C169A,0.00998
6,C82G A111U A120C A145G C150G C169A U176A,0.0145
7,C82G A111U A120C A145G C150G C169A U176C,0.0149
8,C82G A111U A120C A145G C150G C169A U176G,0.0104
9,C82G A111U A120C A145G C150G C169G,0.00753
10,C82G A111U A120C A145G C150G C169G U176A,0.0117
11,C82G A111U A120C A145G C150G C169G U176C,0.0139
12,C82G A111U A120C A145G C150G C169G U176G,0.00661
13,C82G A111U A120C A145G C150G C169U,0.0106
14,C82G A111U A120C A145G C150G C169U U176A,0.0139
15,C82G A111U A120C A145G C150G C169U U176C,0.0123
16,C82G A111U A120C A145G C150G C169U U176G,0.00871
17,C82G A111U A120C A145G C150G U176A,0.00813
18,C82G A111U A120C A145G C150G U176C,0.0118
19,C82G A111U A120C A145G C150G U176G,0.00789
20,C82G A111U A120C A145G C150U,0.0415
21,C82G A111U A120C A145G C150U C169A,0.0111

row,Variant,reverse-splicing fitness
1,C82G A111U A120C A145G C150U C169A U176A,0.0177
2,C82G A111U A120C A145G C150U C169A U176C,0.0177
3,C82G A111U A120C A145G C150U C169A U176G,0.00812
4,C82G A111U A120C A145G C150U C169G,0.00889
5,C82G A111U A120C A145G C150U C169G U176A,0.0154
6,C82G A111U A120C A145G C150U C169G U176C,0.0196
7,C82G A111U A120C A145G C150U C169G U176G,0.00632
8,C82G A111U A120C A145G C150U C169U,0.0134
9,C82G A111U A120C A145G C150U C169U U176A,0.0137
10,C82G A111U A120C A145G C150U C169U U176C,0.0146
11,C82G A111U A120C A145G C150U C169U U176G,0.00687
12,C82G A111U A120C A145G C150U U176A,0.015
13,C82G A111U A120C A145G C150U U176C,0.0292
14,C82G A111U A120C A145G C150U U176G,0.00905
15,C82G A111U A120C A145G C169A,0.0109
16,C82G A111U A120C A145G C169A U176A,0.0222
17,C82G A111U A120C A145G C169A U176C,0.0267
18,C82G A111U A120C A145G C169A U176G,0.00615
19,C82G A111U A120C A145G C169G,0.00963
20,C82G A111U A120C A145G C169G U176A,0.0187
21,C82G A111U A120C A145G C169G U176C,0.0281
